From US20080254024A1 (Genentech, published 2008)

T1: NH2-terminal GD epitope-tagged human EphB2 overexpressed on cells (HT1080-EphB2, SVT2-EphB2) (human, UniProt P29323 19-1055)
T1 construct: whole, on cells; HT1080-EphB2 cells also carry endogenous EphB2; also called full-length EphB2
T1 sequence (looked up): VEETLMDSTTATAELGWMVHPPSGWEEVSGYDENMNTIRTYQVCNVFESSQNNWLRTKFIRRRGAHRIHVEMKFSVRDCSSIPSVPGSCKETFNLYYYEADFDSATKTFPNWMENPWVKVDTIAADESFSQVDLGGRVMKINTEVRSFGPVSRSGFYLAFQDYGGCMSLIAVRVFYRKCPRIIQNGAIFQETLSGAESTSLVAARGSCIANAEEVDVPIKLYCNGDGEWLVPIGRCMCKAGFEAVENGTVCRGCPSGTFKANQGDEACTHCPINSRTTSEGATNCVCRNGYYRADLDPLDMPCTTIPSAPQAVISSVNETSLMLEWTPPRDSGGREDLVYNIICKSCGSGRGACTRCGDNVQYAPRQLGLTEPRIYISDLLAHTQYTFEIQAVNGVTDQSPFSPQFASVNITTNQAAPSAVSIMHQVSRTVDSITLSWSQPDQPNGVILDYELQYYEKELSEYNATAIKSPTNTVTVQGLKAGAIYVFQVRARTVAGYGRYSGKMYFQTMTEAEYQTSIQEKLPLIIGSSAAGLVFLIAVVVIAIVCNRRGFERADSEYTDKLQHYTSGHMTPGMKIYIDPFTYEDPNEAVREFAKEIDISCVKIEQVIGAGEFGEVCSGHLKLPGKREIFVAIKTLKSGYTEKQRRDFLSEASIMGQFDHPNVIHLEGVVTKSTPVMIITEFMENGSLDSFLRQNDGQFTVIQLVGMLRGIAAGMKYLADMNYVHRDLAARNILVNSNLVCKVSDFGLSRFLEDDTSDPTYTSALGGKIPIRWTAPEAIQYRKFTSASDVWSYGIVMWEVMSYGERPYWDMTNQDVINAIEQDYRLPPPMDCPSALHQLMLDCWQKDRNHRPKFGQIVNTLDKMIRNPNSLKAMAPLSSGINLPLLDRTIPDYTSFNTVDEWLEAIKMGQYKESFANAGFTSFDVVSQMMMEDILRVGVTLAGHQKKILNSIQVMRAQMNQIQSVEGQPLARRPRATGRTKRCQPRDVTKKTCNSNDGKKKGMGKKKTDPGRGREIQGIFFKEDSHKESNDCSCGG

T2: endogenous human EphB2 on cells or tissue (HT1080-GD vector control cells, colorectal cancer cell lines, … (human, UniProt P29323 19-1055))
T2 construct: whole, on cells; also called vector control HT1080 cell line
T2 sequence (looked up): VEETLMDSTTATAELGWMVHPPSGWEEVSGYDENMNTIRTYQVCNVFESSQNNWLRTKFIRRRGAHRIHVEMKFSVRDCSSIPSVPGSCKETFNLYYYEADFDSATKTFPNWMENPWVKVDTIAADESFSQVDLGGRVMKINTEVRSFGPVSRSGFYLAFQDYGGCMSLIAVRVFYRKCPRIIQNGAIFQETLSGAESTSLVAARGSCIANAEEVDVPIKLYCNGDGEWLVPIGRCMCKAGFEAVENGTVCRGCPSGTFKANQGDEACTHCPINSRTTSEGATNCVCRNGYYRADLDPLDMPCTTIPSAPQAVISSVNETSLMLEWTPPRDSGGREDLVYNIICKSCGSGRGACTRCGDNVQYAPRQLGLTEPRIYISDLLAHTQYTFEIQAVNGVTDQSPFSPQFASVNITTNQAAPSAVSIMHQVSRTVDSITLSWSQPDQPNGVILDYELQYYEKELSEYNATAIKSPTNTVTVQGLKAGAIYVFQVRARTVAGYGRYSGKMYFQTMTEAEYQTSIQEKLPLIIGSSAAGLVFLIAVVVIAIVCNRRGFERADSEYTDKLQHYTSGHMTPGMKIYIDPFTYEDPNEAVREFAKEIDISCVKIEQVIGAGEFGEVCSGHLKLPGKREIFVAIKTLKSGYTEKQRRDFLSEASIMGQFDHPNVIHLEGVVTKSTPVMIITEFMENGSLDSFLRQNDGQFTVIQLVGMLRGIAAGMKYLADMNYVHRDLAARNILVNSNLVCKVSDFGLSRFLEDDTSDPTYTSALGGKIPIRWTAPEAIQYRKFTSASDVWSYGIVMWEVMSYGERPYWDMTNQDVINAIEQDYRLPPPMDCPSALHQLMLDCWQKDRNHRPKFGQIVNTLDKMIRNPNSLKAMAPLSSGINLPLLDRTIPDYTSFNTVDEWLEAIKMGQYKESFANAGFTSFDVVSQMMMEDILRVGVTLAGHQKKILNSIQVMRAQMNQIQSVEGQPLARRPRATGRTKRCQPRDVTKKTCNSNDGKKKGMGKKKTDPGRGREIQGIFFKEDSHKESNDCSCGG

T3: polyhis-tagged human EphB2 (baculovirus-derived His8-tagged EphB2 receptor) (human, UniProt P29323 19-543)
T3 construct: extracellular domain; also called polyhis tagged EphB2; purified EphB2 immunogen; not shown: His8 tag
T3 sequence (looked up): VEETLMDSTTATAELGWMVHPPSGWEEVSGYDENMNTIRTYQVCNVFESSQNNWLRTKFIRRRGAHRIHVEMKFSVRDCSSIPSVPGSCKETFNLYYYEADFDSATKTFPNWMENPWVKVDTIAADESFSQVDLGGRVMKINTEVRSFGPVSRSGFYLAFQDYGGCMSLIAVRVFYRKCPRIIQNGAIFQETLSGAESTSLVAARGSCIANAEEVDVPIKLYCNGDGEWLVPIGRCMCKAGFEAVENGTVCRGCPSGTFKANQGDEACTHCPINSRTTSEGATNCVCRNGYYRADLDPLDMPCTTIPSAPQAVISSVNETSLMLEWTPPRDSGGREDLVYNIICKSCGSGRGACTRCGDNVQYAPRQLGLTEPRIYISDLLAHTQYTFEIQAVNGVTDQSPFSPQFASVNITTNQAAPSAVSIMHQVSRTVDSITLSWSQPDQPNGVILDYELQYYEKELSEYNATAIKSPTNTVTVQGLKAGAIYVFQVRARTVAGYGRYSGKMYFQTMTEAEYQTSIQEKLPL

B1: anti-EphB2 monoclonal antibody produced by hybridoma cell line 2H9.11.14 (ATCC PTA-6606) (antibody, IgG1, V domains shown)
VH: QVQLQQSGAELAKPGASVKMSCKASGYTFTSYWMHWVKQRPGQGLEWIGFINPSTGYTDYNQKFKDKATLTVKSSNTAYMQLSRLTSEDSAVYYCTRRLKLLRYAMDYWGQGTTLTVSA
VL: DIVMTQSPSSLSVSAGEKVTMNCKSSQSLLNSGNQENYLAWYQQKPGQPPKLLIYGASTRESGVPDRFTGSGSGTDFTLTISSVQAEDLAVYYCQNDHSYPFTFGAGTKVEIKR
notes: 125I-labelled in the Scatchard and uptake assays; also called Mab 2H9; MAb 2H9
B2: immunoconjugate 2H9-MC-vc-PAB-MMAE (antibody, mouse IgG1, V domains shown)
VH: QVQLQQSGAELAKPGASVKMSCKASGYTFTSYWMHWVKQRPGQGLEWIGFINPSTGYTDYNQKFKDKATLTVKSSNTAYMQLSRLTSEDSAVYYCTRRLKLLRYAMDYWGQGTTLTVSA
VL: DIVMTQSPSSLSVSAGEKVTMNCKSSQSLLNSGNQENYLAWYQQKPGQPPKLLIYGASTRESGVPDRFTGSGSGTDFTLTISSVQAEDLAVYYCQNDHSYPFTFGAGTKVEIKR
modifications: MC-vc-PAB-MMAE drug-linker covalently coupled to the antibody; sites and chain not stated
notes: also called MMAE-vc-2H9; 2H9-vc-MMAE

Assays:
[1] = molecular target: T1, NH2-terminal GD epitope-tagged human …; assay: Scatchard analysis, 125I-labeled MAb 2H9 with unlabeled MAb 2H9 on HT1080-EphB2 cells, on ice
[2] = molecular target: T1, NH2-terminal GD epitope-tagged human …; assay: Scatchard analysis of 125I-labelled MAb 2H9 competed with unlabelled MAb 2H9 on HT1080-EphB2 cells
[3] = molecular target: T1, NH2-terminal GD epitope-tagged human …; assay: saturation binding on HT1080-EphB2 cells, HRP-conjugated secondary antibody, absorbance at 450 nm
[4] = molecular target: T2, endogenous human EphB2 on cells or …; assay: Scatchard analysis of 125I-labelled MAb 2H9 competed with unlabelled MAb 2H9 on HT1080-GD cells
[5] = molecular target: T2, endogenous human EphB2 on cells or …; assay: Scatchard analysis, 125I-labeled MAb 2H9 with unlabeled MAb 2H9 on HT1080-GD cells, on ice; HT1080-GD cells, Scatchard analysis
[6] = molecular target: T3, polyhis-tagged human EphB2 …; assay: SPR (BIAcore 3000), antibody immobilized on CM5 chip, polyhis-tagged EphB2 injected, 1:1 model
Description: Binding affinity of Mab 2H9 was determined by surface plasmon resonance using Pharmacia BIAcore® 3000 (BIAcore AB, Uppsala, Sweden) at room temperature (see, e.g., Morton et al. (1998) Methods in Enzymology, 295, 268-294). Anti-EphB2 antibodies were immobilized to the sensor chip (CM5) through primary amine groups. The carboxymethylated sensor chip surface matrix was activated by injecting 20 μl of a mixture of 0.025 M N-hydroxysuccinimide and 0.1 M N-ethyl-N′(dimethylaminopropyl) carbodiimide at 5 μl/min. 5-10 μl of 10 μg/ml solution of anti-EphB2 antibodies in 10 mM sodium acetate, pH 4.5, were injected at 5 μl/min. After coupling, unoccupied sites on the chip were blocked by injecting 20 μl of 1M ethanolamine, pH 8.5. The running buffer was PBS containing 0.05% polysorbate 20. For kinetic measurements, two-fold serial dilutions of polyhis-tagged EphB2 in running buffer were injected over the flow cells for 3 minutes at a flow rate of 30 μl/min and the bound polyhis tagged EphB2 was allow to dissociate for 20 minutes. The binding surface was regenerated by injecting 20 μl of 10 mM glycine-HCl (pH 1.5). […] There was no significant non-specific binding of polyhis tagged EphB2 to flow cell one. For calculate apparent binding affinity, data were analyzed using a 1:1 binding model using global fitting. The association and dissociation rate constants were fitted simultaneously (BIAevaluation software).

[7] = molecular target: T1, NH2-terminal GD epitope-tagged human …; assay: cell-based or functional assay
[8] = molecular target: T2, endogenous human EphB2 on cells or …; assay: saturation binding on HT1080-GD cells, HRP-conjugated secondary antibody, absorbance at 450 nm

Binder | Kd [1] [nM] | Kd [2] [nM] | EC50 (read off the curve) [3] [µg/mL] | Kd [4] [nM] | Kd [5] [nM] | Kd [6] [nM] | koff [6] [s⁻¹] | kon [6] [M⁻¹ s⁻¹] | internalization of 125I-labeled MAb 2H9 by HT1080-EphB2 cells after shift to 37° C. for 1 hour [7] [fold] | EC50 (read off the curve) [8] [µg/mL] | antibody concentration required for half-maximal cell killing (IC50), Cell Titer-Glo viability after 48 h [7] [µg/mL]
B1 | ~4 | 4.1 | ~0.02 | 4.4 | ~4 | 0.12 | 1.03e-05 | 82800 | ~2 | ~0.02 | –
B2 | – | – | ~0.02 | – | – | – | – | – | – | – | 0.006
